For the assay, the target named is N-terminal domain of Saccharomyces cerevisiae Hsp82 (1–210) (Saccharomyces cerevisiae, UniProt P02829 1-210). Kind of assay: NMR titration.

This note sets out measurements from paper PMC2570500 (EMBO Reports, 2008).

As usually defined, the Kd is the equilibrium constant for the complex coming apart.

Chain of N-terminal domain of Saccharomyces cerevisiae Hsp82 (1–210) (P02829 1-210): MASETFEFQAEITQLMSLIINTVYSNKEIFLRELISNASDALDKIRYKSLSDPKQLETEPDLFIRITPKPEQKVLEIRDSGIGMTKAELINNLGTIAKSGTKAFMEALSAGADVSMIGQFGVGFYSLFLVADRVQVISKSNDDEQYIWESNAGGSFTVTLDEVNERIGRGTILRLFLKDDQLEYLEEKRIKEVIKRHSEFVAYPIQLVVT

B1: CS domain of S. cerevisiae Sgt1 (176–290) (domain or fragment)
chain: ETAPQESPKFKIDWYQSSTSVTISLFTVNLPESKEQVNIYISPNDRRTLSISYQVPKSGSEFQYNAKLSHEVDPKAVSLKIFPKKLEITLSKIDSTQWKKLEEDILTESSRLSDE
B1: the Kd stood at 27 ± 3 µM.

B2: CS domain of Arabidopsis SGT1a (149–253), NMR sample (domain or fragment)
chain: TAKYRHEYYQKPEEVVVTVFAKGIPKQNVNIDFGEQILSVVIEVPGEDAYYLQPRLFGKIIPDKCKYEVLSTKIEICLAKADIITWASLEHGKGPAVLPKPNVSS
For B2, the binding result was “binds”.
